The target of one experiment is T1, HCV proteins (Hepatitis C virus genotype 1b, UniProt Q9WMX2).
T1 construct: expressed in transfected cells
In words: Validation by Y2H pairwise matrices.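 Note: yeast two-hybrid pairwise tests of interactions first found in Y2H screens of HCV bait proteins against human cDNA libraries.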 The class given is binding.

The target in experiment [1] is T2, HCV ORFs (Gal4-DB fusions) (Hepatitis C virus genotype 1b, UniProt Q9WMX2).
T2 construct: expressed in transfected cells; host or cells: Saccharomyces cerevisiae MAV203 (IMAP1) / AH109 (IMAP2)
The format is binding, HCV genotype 1b, isolate con1. To be noted: human protein as prey.

Experiment [2] has as its system HCV ORFs (Gal4-DB fusions). The format is binding, HCV genotype 1b, isolate con1. The settings on record: human protein listed by gene symbol; the value names the HCV protein it interacts with.
The target of experiment [3] is T3, GST-tagged viral proteins (Hepatitis C virus genotype 1b, UniProt Q9WMX2).
T3 construct: expressed in transfected cells; host or cells: HEK-293T
T3 sequence (Q9WMX2 1973-2419): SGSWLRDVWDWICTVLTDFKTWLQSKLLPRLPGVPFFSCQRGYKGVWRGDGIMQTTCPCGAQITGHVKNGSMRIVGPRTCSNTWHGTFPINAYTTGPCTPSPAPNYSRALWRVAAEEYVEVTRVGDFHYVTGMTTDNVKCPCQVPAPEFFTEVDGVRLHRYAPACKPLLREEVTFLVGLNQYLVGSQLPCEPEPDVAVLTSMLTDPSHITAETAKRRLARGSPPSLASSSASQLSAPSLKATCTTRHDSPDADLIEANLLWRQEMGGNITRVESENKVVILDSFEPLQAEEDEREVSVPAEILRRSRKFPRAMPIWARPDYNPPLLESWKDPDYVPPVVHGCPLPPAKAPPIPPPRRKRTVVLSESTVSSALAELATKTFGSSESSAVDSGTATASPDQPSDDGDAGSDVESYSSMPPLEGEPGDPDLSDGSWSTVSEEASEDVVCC
Description: Validation by co-affinity purification (CoAP). The class given is binding, HCV genotype 1b, isolate con1. Set-up: key: +: IMAP validation; −: not validated; NA: non assayable due to default of protein expression or to cellular protein directly interacting with GST. To be noted: interaction with HCV protein NS5A. The source says:
C. Validation of Y2H interactions by co-affinity purification assay. Nine co-AP positive assays are shown, representing: NS5A-SORBS2 (1), NS3-CALCOCO2 (2), NS5A-BIN1 (3), NS5A-MOBK1B (4), NS5A-EFEMP1 (5), NS3-PSMB9 and NS5A-PSMB9 (6), NS5A-PPPIRI3L (7), NS3-RASAL2 (8). After pull-down with GST tagged viral baits (+) or with negative control GST alone (−), cellular preys are identified with anti-Flag antibody. Anti-GST antibody identifies either GST alone or GST-tagged viral baits. Expression of cellular preys in cell lysate is controlled by anti-Flag (bottom panel). […]
A random pool of 59 IMAP Y2H interactions was chosen for CoAP assays. Cellular ORFs (interacting domains found in Y2H screens) were cloned by recombinational cloning from a pool of human cDNA library or the MGC cDNA plasmids using KOD polymerase (Toyobo) into pDONR207 (Invitrogen). After validation by sequencing, these ORFs were transferred to pCi-neo-3xFLAG gateway-converted, and HCV ORFs were transferred into pDEST27 (GST fusion in N-term). HEK-293T cells were then co-transfected (JetPei, Polyplus) by each pair of plasmid encoding interacting proteins. Controls are GST alone against 3xFLAG-tagged preys. Two days after transfection, cells were harvested and lysed (0.5% NP-40, 20 mM Tris-HCl (pH 8.0), 180 mM NaCl, 1 mM EDTA, and complete protease inhibitor cocktail). Cell lysates were cleared by centrifugation for 20 min at 13,000 rpm at 4° C. and soluble protein complexes were purified using Glutathione Sepharose 4B beads (GE Healthcare). Beads were then washed extensively four times with lysis buffer and proteins were separated on SDS-PAGE and transferred to nitrocellulose membrane. GST-tagged viral proteins and 3xFLAG-tagged cellular proteins were detected using standard immunoblotting techniques using anti-GST (Covance) and anti-FLAG M2 (Sigma) monoclonal antibodies (21).

Where [4] appears, read: validation of interaction with HCV protein CORE.
Setting [5] is: validation of interaction with HCV protein NS3.

Read-outs that look alike come from different tables or passages of the source.
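Throughout, for IMAP Y2H IMAP1 (number of IST): yeast two-hybrid screens using HCV genotype 1b proteins fused to Gal4-DB as baits against prey cDNA libraries from human spleen and foetal brain, IMAP1 via transformation and IMAP2 via mating.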
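Throughout, for IMAP Y2H IMAP2 (number of IST): yeast two-hybrid screens using HCV genotype 1b proteins fused to Gal4-DB as baits against prey cDNA libraries from human spleen and foetal brain, IMAP1 via transformation and IMAP2 via mating.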
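Throughout, for Interaction with viral protein: yeast two-hybrid screens using HCV genotype 1b proteins fused to Gal4-DB as baits against prey cDNA libraries from human spleen and foetal brain, IMAP1 via transformation and IMAP2 via mating.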

B1: BCAR1 (protein, UniProt P56945 1-870, looked up)
Breast cancer anti-estrogen …: MNHLNVLAKALYDNVAESPDELSFRKGDIMTVLEQDTQGLDGWWLCSLHGRQGIVPGNRLKILVGMYDKKPAGPGPGPPATPAQPQPGLHAPAPPASQYTPMLPNTYQPQPDSVYLVPTPSKAQQGLYQVPGPSPQFQSPPAKQTSTFSKQTPHHPFPSPATDLYQVPPGPGGPAQDIYQVPPSAGMGHDIYQVPPSMDTRSWEGTKPPAKVVVPTRVGQGYVYEAAQPEQDEYDIPRHLLAPGPQDIYDVPPVRGLLPSQYGQEVYDTPPMAVKGPNGRDPLLEVYDVPPSVEKGLPPSNHHAVYDVPPSVSKDVPDGPLLREETYDVPPAFAKAKPFDPARTPLVLAAPPPDSPPAEDVYDVPPPAPDLYDVPPGLRRPGPGTLYDVPRERVLPPEVADGGVVDSGVYAVPPPAEREAPAEGKRLSASSTGSTRSSQSASSLEVAGPGREPLELEVAVEALARLQQGVSATVAHLLDLAGSAGATGSWRSPSEPQEPLVQDLQAAVAAVQSAVHELLEFARSAVGNAAHTSDRALHAKLSRQLQKMEDVHQTLVAHGQALDAGRGGSGATLEDLDRLVACSRAVPEDAKQLASFLHGNASLLFRRTKATAPGPEGGGTLHPNPTDKTSSIQSRPLPSPPKFTSQDSPDGQYENSEGGWMEDYDYVHLQGKEEFEKTQKELLEKGSITRQGKSQLELQQLKQFERLEQEVSRPIDHDLANWTPAQPLAPGRTGGLGPSDRQLLLFYLEQCEANLTTLTNAVDAFFTAVATNQPPKIFVAHSKFVILSAHKLVFIGDTLSRQAKAADVRSQVTHYSNLLCDLLRGIVATTKAAALQYPSPSAAQDMVERVKELGHSTQQFRRVLGQLAAA
Regarding B1, in the experiment with HCV proteins (setting [4]), the Y2H matrices entry is “+”. For the same molecule, the “IMAP Y2H IMAP1 (number of IST)” value in experiment [1] (HCV protein CORE as bait) is reported as 1. Further, the “Interaction with viral protein” value in experiment [2] is on record as “CORE”.

B2: NAP1L2 (protein, UniProt Q9ULW6 1-460, looked up)
Nucleosome assembly protein …: MAESENRKELSESSQEEAGNQIMVEGLGEHLERGEDAAAGLGDDGKCGEEAAAGLGEEGENGEDTAAGSGEDGKKGGDTDEDSEADRPKGLIGYVLDTDFVESLPVKVKYRVLALKKLQTRAANLESKFLREFHDIERKFAEMYQPLLEKRRQIINAIYEPTEEECEYKSDSEDCDDEEMCHEEMYGNEEGMVHEYVDEDDGYEDYYYDYAVEEEEEEEEEDDIEATGEENKEEEDPKGIPDFWLTVLKNVDTLTPLIKKYDEPILKLLTDIKVKLSDPGEPLSFTLEFHFKPNEYFKNELLTKTYVLKSKLAYYDPHPYRGTAIEYSTGCEIDWNEGKNVTLKTIKKKQKHRIWGTIRTVTEDFPKDSFFNFFSPHGITSNGRDGNDDFLLGHNLRTYIIPRSVLFFSGDALESQQEGVVREVNDAIYDKIIYDNWMAAIEEVKACCKNLEALVEDIDR
Consider B2, for which the “IMAP Y2H IMAP2 (number of IST)” value in experiment [1] (HCV protein NS5A as bait) came out at 4. For the same molecule, the CoAP entry in experiment [3] is listed as “+”.

B3: C12orf41 (protein, UniProt Q9H9L4 1-492, looked up)
KAT8 regulatory NSL complex …: MNRIRIHVLPTNRGRITPVPRSQEPLSCAFTHRPCSHPRLEGQEFCIKHILEDKNAPFKQCSYISTKNGKRCPNAAPKPEKKDGVSFCAEHVRRNALALHAQMKKTNPGPVGETLLCQLSSYAKTELGSQTPESSRSEASRILDEDSWSDGEQEPITVDQTWRGDPDSEADSIDSDQEDPLKHAGVYTAEEVALIMREKLIRLQSLYIDQFKRLQHLLKEKKRRYLHNRKVEHEALGSSLLTGPEGLLAKERENLKRLKCLRRYRQRYGVEALLHRQLKERRMLATDGAAQQAHTTRSSQRCLAFVDDVRCSNQSLPMTRHCLTHICQDTNQVLFKCCQGSEEVPCNKPVPVSLSEDPCCPLHFQLPPQMYKPEQVLSVPDDLEAGPMDLYLSAAELQPTESLPLEFSDDLDVVGDGMQCPPSPLLFDPSLTLEDHLVKEIAEDPVDILGQMQMAGDGCRSQGSRNSEKASAPLSQSGLATANGKPEPTSIS
B3: the Y2H matrices entry with HCV proteins (setting [5]) was “+”. Further, the “IMAP Y2H IMAP1 (number of IST)” value in experiment [1] (HCV protein NS3 as bait) came out at 1. Also, the “Interaction with viral protein” value in experiment [2] is given as “NS3”.

B4: CD68 (protein, UniProt P34810 22-354, looked up)
Macrosialin: NDCPHKKSATLLPSFTVTPTVTESTGTTSHRTTKSHKTTTHRTTTTGTTSHGPTTATHNPTTTSHGNVTVHPTSNSTATSQGPSTATHSPATTSHGNATVHPTSNSTATSPGFTSSAHPEPPPPSPSPSPTSKETIGDYTWTNGSQPCVHLQAQIQIRVMYTTQGGGEAWGISVLNPNKTKVQGSCEGAHPHLLLSFPYGHLSFGFMQDLQQKVVYLSYMAVEYNVSFPHAAQWTFSAQNASLRDLQAPLGQSFSCSNSSIILSPAVHLDLLSLRLQAAQLPHTGVFGQSFSCPSDRSILLPLIIGLILLGLLALVLIAFCIIRRRPSAYQAL
For B4, the Y2H matrices result in the experiment with HCV proteins (setting [4]) is recorded as “+”. Moreover, the “IMAP Y2H IMAP1 (number of IST)” value in experiment [1] (HCV protein CORE as bait) came out at 1. Also, in experiment [2], the “Interaction with viral protein” value is “CORE”.

B5: C1orf94 (protein, UniProt Q6P1W5 1-598, looked up)
Uncharacterized protein …: MRGGGGCVLALGGQRGFQKERRRMASGNGLPSSSALVAKGPCALGPFPRYIWIHQDTPQDSLDKTCHEIWKRVQGLPEASQPWTSMEQLSVPVVGTLRGNELSFQEEALELSSGKDEISLLVEQEFLSLTKEHSILVEESSGELEVPGSSPEGTRELAPCILAPPLVAGSNERPRASIIVGDKLLKQKVAMPVISSRQDCDSATSTVTDILCAAEVKSSKGTEDRGRILGDSNLQVSKLLSQFPLKSTETSKVPDNKNVLDKTRVTKDFLQDNLFSGPGPKEPTGLSPFLLLPPRPPPARPDKLPELPAQKRQLPVFAKICSKPKADPAVERHHLMEWSPGTKEPKKGQGSLFLSQWPQSQKDACGEEGCCDAVGTASLTLPPKKPTCPAEKNLLYEFLGATKNPSGQPRLRNKVEVDGPELKFNAPVTVADKNNPKYTGNVFTPHFPTAMTSATLNQPLWLNLNYPPPPVFTNHSTFLQYQGLYPQQAARMPYQQALHPQLGCYSQQVMPYNPQQMGQQIFRSSYTPLLSYIPFVQPNYPYPQRTPPKMSANPRDPPLMAGDGPQYLFPQGYGFGSTSGGPLMHSPYFSSSGNGINF
For B5, the Y2H matrices entry with HCV proteins (setting [5]) is “+”. For the same molecule, in experiment [1] (HCV protein NS3 as bait), the “IMAP Y2H IMAP1 (number of IST)” value is 1. Further, the “Interaction with viral protein” value in experiment [2] is listed as “NS3”.

B6: BCAN (protein, UniProt Q96GW7 23-911, looked up)
Brevican core protein: DVLEGDSSEDRAFRVRIAGDAPLQGVLGGALTIPCHVHYLRPPPSRRAVLGSPRVKWTFLSRGREAEVLVARGVRVKVNEAYRFRVALPAYPASLTDVSLALSELRPNDSGIYRCEVQHGIDDSSDAVEVKVKGVVFLYREGSARYAFSFSGAQEACARIGAHIATPEQLYAAYLGGYEQCDAGWLSDQTVRYPIQTPREACYGDMDGFPGVRNYGVVDPDDLYDVYCYAEDLNGELFLGDPPEKLTLEEARAYCQERGAEIATTGQLYAAWDGGLDHCSPGWLADGSVRYPIVTPSQRCGGGLPGVKTLFLFPNQTGFPNKHSRFNVYCFRDSAQPSAIPEASNPASNPASDGLEAIVTVTETLEELQLPQEATESESRGAIYSIPIMEDGGGGSSTPEDPAEAPRTLLEFETQSMVPPTGFSEEEGKALEEEEKYEDEEEKEEEEEEEEVEDEALWAWPSELSSPGPEASLPTEPAAQEESLSQAPARAVLQPGASPLPDGESEASRPPRVHGPPTETLPTPRERNLASPSPSTLVEAREVGEATGGPELSGVPRGESEETGSSEGAPSLLPATRAPEGTRELEAPSEDNSGRTAPAGTSVQAQPVLPTDSASRGGVAVVPASGDCVPSPCHNGGTCLEEEEGVRCLCLPGYGGDLCDVGLRFCNPGWDAFQGACYKHFSTRRSWEEAETQCRMYGAHLASISTPEEQDFINNRYREYQWIGLNDRTIEGDFLWSDGVPLLYENWNPGQPDSYFLSGENCVVMVWHDQGQWSDVPCNYHLSYTCKMGLVSCGPPPELPLAQVFGRPRLRYEVDTVLRYRCREGLAQRNLPLIRCQENGRWEAPQISCVPRRPARALHPEEDPEGRQGRLLGRWKALLIPPSSPMPGP
Take B6: the Y2H matrices entry with HCV proteins (setting [5]) is recorded as “+”. In experiment [1] (HCV protein NS3 as bait), the “IMAP Y2H IMAP1 (number of IST)” value is 2. Further, in experiment [2], the “Interaction with viral protein” value was “NS3”.

The values are drawn from patent US20110091994A1, “Methods for Screening Compounds for Treating and/or Preventing an Hepatitis C Virus Infection” (priority 2008, published 2011).
